According to patent publication US20180303952A1 (CYTOMX THERAPEUTICS, published 2018):
Like-named read-outs stand apart in the source and are kept apart here.

T1: human CD147 protein (adsorbed to ELISA plates) (human, UniProt P35613-2 22-205, limits assumed)
T1 construct: also called human CD147 polypeptide; Basigin
T1 sequence (looked up): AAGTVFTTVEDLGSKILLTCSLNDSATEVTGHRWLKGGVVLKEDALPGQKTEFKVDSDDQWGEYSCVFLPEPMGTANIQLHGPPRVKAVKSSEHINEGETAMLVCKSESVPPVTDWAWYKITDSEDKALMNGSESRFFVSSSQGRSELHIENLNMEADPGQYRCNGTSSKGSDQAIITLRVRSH

B1: anti-human CD147 activatable antibody hu 3A11 Hc1/Lc1-217-3001 (antibody)
VH: EVQLVESGGGLVQPGGSLRLSCAASGFTFSNYWMDWVRQAPGKGLEWVGEIRLKSYNYATHYAASVKGRFTISRDDSKNSVYLQMNSLKTEDTAVYYCTAAGTDYWGQGTLVTVSS
VL: QSLFCSGFRCDQYASGGGSSGGSAVGLLAPPGGLSGRSDNHGGSDIQMTQSPSSLSASVGDRVTITCRASQSVRTDVGWYQQKPGKAPKLLIYYSSNRYTGVPSRFSGSGSGTDFTLTISSLQPEDFATYYCQQDYSSPYTFGQGTKLEIK
notes: also called hu 3A11-217-3001
B2: anti-human CD147 activatable antibody hu 3A11 Hc1/Lc1-419-3001 (antibody)
VH: EVQLVESGGGLVQPGGSLRLSCAASGFTFSNYWMDWVRQAPGKGLEWVGEIRLKSYNYATHYAASVKGRFTISRDDSKNSVYLQMNSLKTEDTAVYYCTAAGTDYWGQGTLVTVSS
VL: LHGPCHYDLKCKNNTGGGSSGGSAVGLLAPPGGLSGRSDNHGGSDIQMTQSPSSLSASVGDRVTITCRASQSVRTDVGWYQQKPGKAPKLLIYYSSNRYTGVPSRFSGSGSGTDFTLTISSLQPEDFATYYCQQDYSSPYTFGQGTKLEIK
notes: also called hu 3A11-419-3001
B3: anti-human CD147 activatable antibody hu 3A11 Hc1/Lc1-416-3001 (antibody)
VH: EVQLVESGGGLVQPGGSLRLSCAASGFTFSNYWMDWVRQAPGKGLEWVGEIRLKSYNYATHYAASVKGRFTISRDDSKNSVYLQMNSLKTEDTAVYYCTAAGTDYWGQGTLVTVSS
VL: WQRECSQKNICQYYIGGGSSGGSAVGLLAPPGGLSGRSDNHGGSDIQMTQSPSSLSASVGDRVTITCRASQSVRTDVGWYQQKPGKAPKLLIYYSSNRYTGVPSRFSGSGSGTDFTLTISSLQPEDFATYYCQQDYSSPYTFGQGTKLEIK
notes: also called hu 3A11-416-3001
B4: anti-human CD147 activatable antibody hu 3A11 Hc1/Lc1-216-3001 (antibody)
VH: EVQLVESGGGLVQPGGSLRLSCAASGFTFSNYWMDWVRQAPGKGLEWVGEIRLKSYNYATHYAASVKGRFTISRDDSKNSVYLQMNSLKTEDTAVYYCTAAGTDYWGQGTLVTVSS
VL: HGPCHYNFNSGCAQFGGGSSGGSAVGLLAPPGGLSGRSDNHGGSDIQMTQSPSSLSASVGDRVTITCRASQSVRTDVGWYQQKPGKAPKLLIYYSSNRYTGVPSRFSGSGSGTDFTLTISSLQPEDFATYYCQQDYSSPYTFGQGTKLEIK
notes: also called hu 3A11-216-3001
B5: anti-human CD147 activatable antibody hu 3A11 Hc1/Lc1-440-3001 (antibody)
VH: EVQLVESGGGLVQPGGSLRLSCAASGFTFSNYWMDWVRQAPGKGLEWVGEIRLKSYNYATHYAASVKGRFTISRDDSKNSVYLQMNSLKTEDTAVYYCTAAGTDYWGQGTLVTVSS
VL: TCLHLTRFNYLSCNKGGGSSGGSAVGLLAPPGGLSGRSDNHGGSDIQMTQSPSSLSASVGDRVTITCRASQSVRTDVGWYQQKPGKAPKLLIYYSSNRYTGVPSRFSGSGSGTDFTLTISSLQPEDFATYYCQQDYSSPYTFGQGTKLEIK
notes: also called hu 3A11-440-3001
B6: anti-human CD147 activatable antibody hu 3A11 Hc1/Lc1-414.1-3001 (antibody, V domains shown)
VH: EVQLVESGGGLVQPGGSLRLSCAASGFTFSNYWMDWVRQAPGKGLEWVGEIRLKSYNYATHYAASVKGRFTISRDDSKNSVYLQMNSLKTEDTAVYYCTAAGTDYWGQGTLVTVSS
VL: THGPCHFKPNCGGGSSGGSAVGLLAPPGGLSGRSDNHGGSDIQMTQSPSSLSASVGDRVTITCRASQSVRTDVGWYQQKPGKAPKLLIYYSSNRYTGVPSRFSGSGSGTDFTLTISSLQPEDFATYYCQQDYSSPYTFGQGTKLEIK
notes: also called hu 3A11-414.1-3001
B7: anti-human CD147 activatable antibody hu 3A11 Hc1/Lc1-428-3001 (antibody)
VH: EVQLVESGGGLVQPGGSLRLSCAASGFTFSNYWMDWVRQAPGKGLEWVGEIRLKSYNYATHYAASVKGRFTISRDDSKNSVYLQMNSLKTEDTAVYYCTAAGTDYWGQGTLVTVSS
VL: WHGPCHYTKCDDHTMGGGSSGGSAVGLLAPPGGLSGRSDNHGGSDIQMTQSPSSLSASVGDRVTITCRASQSVRTDVGWYQQKPGKAPKLLIYYSSNRYTGVPSRFSGSGSGTDFTLTISSLQPEDFATYYCQQDYSSPYTFGQGTKLEIK
notes: also called hu 3A11-428-3001
B8: anti-human CD147 activatable antibody hu 3A11 Hc1/Lc1-422-3001 (antibody)
VH: EVQLVESGGGLVQPGGSLRLSCAASGFTFSNYWMDWVRQAPGKGLEWVGEIRLKSYNYATHYAASVKGRFTISRDDSKNSVYLQMNSLKTEDTAVYYCTAAGTDYWGQGTLVTVSS
VL: LHGPCHYMNTCHNVKGGGSSGGSAVGLLAPPGGLSGRSDNHGGSDIQMTQSPSSLSASVGDRVTITCRASQSVRTDVGWYQQKPGKAPKLLIYYSSNRYTGVPSRFSGSGSGTDFTLTISSLQPEDFATYYCQQDYSSPYTFGQGTKLEIK
notes: also called hu 3A11-422-3001
B9: anti-human CD147 activatable antibody hu 3A11 Hc1/Lc1-415-3001 (antibody)
VH: EVQLVESGGGLVQPGGSLRLSCAASGFTFSNYWMDWVRQAPGKGLEWVGEIRLKSYNYATHYAASVKGRFTISRDDSKNSVYLQMNSLKTEDTAVYYCTAAGTDYWGQGTLVTVSS
VL: LHGPCHFNNCNTLKLGGGSSGGSAVGLLAPPGGLSGRSDNHGGSDIQMTQSPSSLSASVGDRVTITCRASQSVRTDVGWYQQKPGKAPKLLIYYSSNRYTGVPSRFSGSGSGTDFTLTISSLQPEDFATYYCQQDYSSPYTFGQGTKLEIK
notes: also called hu 3A11-415-3001
B10: anti-human CD147 activatable antibody hu 3A11 Hc1/Lc1-419.1-3001 (antibody)
VH: EVQLVESGGGLVQPGGSLRLSCAASGFTFSNYWMDWVRQAPGKGLEWVGEIRLKSYNYATHYAASVKGRFTISRDDSKNSVYLQMNSLKTEDTAVYYCTAAGTDYWGQGTLVTVSS
VL: LHGPCHYDLKCKQNTGGGSSGGSAVGLLAPPGGLSGRSDNHGGSDIQMTQSPSSLSASVGDRVTITCRASQSVRTDVGWYQQKPGKAPKLLIYYSSNRYTGVPSRFSGSGSGTDFTLTISSLQPEDFATYYCQQDYSSPYTFGQGTKLEIK
notes: also called hu 3A11-419.1-3001
B11: anti-human CD147 activatable antibody hu 3A11 Hc1/Lc1-414.3-3001 (antibody)
VH: EVQLVESGGGLVQPGGSLRLSCAASGFTFSNYWMDWVRQAPGKGLEWVGEIRLKSYNYATHYAASVKGRFTISRDDSKNSVYLQMNSLKTEDTAVYYCTAAGTDYWGQGTLVTVSS
VL: THGPCHFKPNCAYPTGGGSSGGSAVGLLAPPGGLSGRSDNHGGSDIQMTQSPSSLSASVGDRVTITCRASQSVRTDVGWYQQKPGKAPKLLIYYSSNRYTGVPSRFSGSGSGTDFTLTISSLQPEDFATYYCQQDYSSPYTFGQGTKLEIK
notes: also called hu 3A11-414.3-3001
B12: anti-human CD147 activatable antibody hu 3A11 Hc1/Lc1-221-3001 (antibody)
VH: EVQLVESGGGLVQPGGSLRLSCAASGFTFSNYWMDWVRQAPGKGLEWVGEIRLKSYNYATHYAASVKGRFTISRDDSKNSVYLQMNSLKTEDTAVYYCTAAGTDYWGQGTLVTVSS
VL: DHGPCHYVSCTTINHGGGSSGGSAVGLLAPPGGLSGRSDNHGGSDIQMTQSPSSLSASVGDRVTITCRASQSVRTDVGWYQQKPGKAPKLLIYYSSNRYTGVPSRFSGSGSGTDFTLTISSLQPEDFATYYCQQDYSSPYTFGQGTKLEIK
notes: also called hu 3A11-221-3001
B13: anti-human CD147 activatable antibody hu 3A11 Hc1/Lc1-445-3001 (antibody)
VH: EVQLVESGGGLVQPGGSLRLSCAASGFTFSNYWMDWVRQAPGKGLEWVGEIRLKSYNYATHYAASVKGRFTISRDDSKNSVYLQMNSLKTEDTAVYYCTAAGTDYWGQGTLVTVSS
VL: SHGPCHFDYQCINNTGGGSSGGSAVGLLAPPGGLSGRSDNHGGSDIQMTQSPSSLSASVGDRVTITCRASQSVRTDVGWYQQKPGKAPKLLIYYSSNRYTGVPSRFSGSGSGTDFTLTISSLQPEDFATYYCQQDYSSPYTFGQGTKLEIK
notes: also called hu 3A11-445-3001
B14: anti-human CD147 activatable antibody hu 3A11 Hc1/Lc1-253-3001 (antibody)
VH: EVQLVESGGGLVQPGGSLRLSCAASGFTFSNYWMDWVRQAPGKGLEWVGEIRLKSYNYATHYAASVKGRFTISRDDSKNSVYLQMNSLKTEDTAVYYCTAAGTDYWGQGTLVTVSS
VL: VHGPCHWSVECLSNVGGGSSGGSAVGLLAPPGGLSGRSDNHGGSDIQMTQSPSSLSASVGDRVTITCRASQSVRTDVGWYQQKPGKAPKLLIYYSSNRYTGVPSRFSGSGSGTDFTLTISSLQPEDFATYYCQQDYSSPYTFGQGTKLEIK
notes: also called hu 3A11-253-3001
B15: anti-human CD147 activatable antibody hu 3A11 Hc1/Lc1-215-3001 (antibody)
VH: EVQLVESGGGLVQPGGSLRLSCAASGFTFSNYWMDWVRQAPGKGLEWVGEIRLKSYNYATHYAASVKGRFTISRDDSKNSVYLQMNSLKTEDTAVYYCTAAGTDYWGQGTLVTVSS
VL: RYQSCHSYWCTEGNHGGGSSGGSAVGLLAPPGGLSGRSDNHGGSDIQMTQSPSSLSASVGDRVTITCRASQSVRTDVGWYQQKPGKAPKLLIYYSSNRYTGVPSRFSGSGSGTDFTLTISSLQPEDFATYYCQQDYSSPYTFGQGTKLEIK
notes: also called hu 3A11-215-3001
B16: anti-human CD147 activatable antibody hu 3A11 Hc1/Lc1-443-3001 (antibody)
VH: EVQLVESGGGLVQPGGSLRLSCAASGFTFSNYWMDWVRQAPGKGLEWVGEIRLKSYNYATHYAASVKGRFTISRDDSKNSVYLQMNSLKTEDTAVYYCTAAGTDYWGQGTLVTVSS
VL: AHGPCHYNTECNSNKGGGSSGGSAVGLLAPPGGLSGRSDNHGGSDIQMTQSPSSLSASVGDRVTITCRASQSVRTDVGWYQQKPGKAPKLLIYYSSNRYTGVPSRFSGSGSGTDFTLTISSLQPEDFATYYCQQDYSSPYTFGQGTKLEIK
notes: also called hu 3A11-443-3001
B17: anti-human CD147 activatable antibody hu 3A11 Hc1/Lc1-414.2-3001 (antibody)
VH: EVQLVESGGGLVQPGGSLRLSCAASGFTFSNYWMDWVRQAPGKGLEWVGEIRLKSYNYATHYAASVKGRFTISRDDSKNSVYLQMNSLKTEDTAVYYCTAAGTDYWGQGTLVTVSS
VL: THGPCHFKPQCSYPTGGGSSGGSAVGLLAPPGGLSGRSDNHGGSDIQMTQSPSSLSASVGDRVTITCRASQSVRTDVGWYQQKPGKAPKLLIYYSSNRYTGVPSRFSGSGSGTDFTLTISSLQPEDFATYYCQQDYSSPYTFGQGTKLEIK
notes: also called hu 3A11-414.2-3001

Columns and labels:
[1] = target: T1, human CD147 protein (adsorbed to ELISA …); assay: ELISA, human CD147 protein adsorbed to plate, intact activatable antibody; apparent KD
Description: Humanized anti-human CD147 antibodies of the present disclosure hu 3A11 Hc1/Lc1 (VL of SEQ ID NO: 5 and VH of SEQ ID NO: 1) were used as a control.
(§1) Using a standard ELISA protocol, human CD147 protein was absorbed to ELISA plates and subsequently incubated with the indicated concentration of antibody of the present disclosure. Bound humanized activatable antibody of the present disclosure was detected with anti-human Fab-peroxidase secondary antibody and Ultra TMB detection (Thermo Fisher Scientific).

[2] = target: T1, human CD147 protein (adsorbed to ELISA …); assay: as above; remark: listed apart in the source
Description: as §1, with “For the exemplary assay depicted in FIGS. 7A-7C,” for “Using a”, “protocol was used, in which” for “protocol,”

Binder	Kd [1]	Kd [2]
B1	1.61 nM	
B2	9.43 nM	
B3	0.49 nM	
B4	0.89 nM	
B5	1.23 nM	
B6		13.8 nM
B7	7.63 nM	
B8	1.55 nM	
B9	4.72 nM	
B10		44 nM
B11		20.2 nM
B12	2.5 nM	
B13	7.86 nM	
B14	0.87 nM	
B15	5.53 nM	
B16	7.4 nM	
B17		15.7 nM
